We go through 2 molecules from patent US20160289698A1 (TRUSTEES OF DARTMOUTH COLLEGE, published 2016).

What all share (assay): yeast two-hybrid (LexA-KMD bait, B42-ARR prey, X-gal)
The target of one test is T1, ARR19 (subfamily-2) (Arabidopsis, UniProt Q9M9B9 1-407, limits assumed).
T1 sequence (looked up): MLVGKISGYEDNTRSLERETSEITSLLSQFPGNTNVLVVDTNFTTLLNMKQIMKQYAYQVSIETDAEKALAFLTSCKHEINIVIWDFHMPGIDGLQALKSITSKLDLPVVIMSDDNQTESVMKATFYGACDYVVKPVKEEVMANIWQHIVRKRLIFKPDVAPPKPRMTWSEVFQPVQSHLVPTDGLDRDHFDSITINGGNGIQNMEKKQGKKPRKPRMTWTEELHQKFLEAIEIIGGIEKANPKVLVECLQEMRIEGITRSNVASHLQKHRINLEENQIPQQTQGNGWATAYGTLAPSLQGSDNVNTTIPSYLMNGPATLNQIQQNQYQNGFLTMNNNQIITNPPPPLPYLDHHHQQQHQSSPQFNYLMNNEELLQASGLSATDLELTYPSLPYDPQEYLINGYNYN
The source says:
(§1) The DUPLEX-A™ system (OriGene Technologies) was used for yeast two-hybrid analysis of interactions. KMD cDNAs were cloned into the pGilda bait vector, which produces an in-frame fusion with the LexA DNA-binding domain. Type-B ARR coding sequences were cloned into the pJG4-5 prey vector, which produces a B42 activation domain. The yeast strain EGY48 (MATa, trp1, his3, ura3, leu2::6 LexAop-LEU2) that contains the lacZ reporter plasmid pSH18-34 was transformed with the appropriate “bait” and “prey” plasmids. Interactions were tested on 5-bromo-4-chloro-3-indolyl-p-D-galactopyranoside (X-gal) medium (Ryu, et al. (2005) Cell 120(3): 395-406).
(§2) The KMD proteins also interacted with ARR20 (type-B ARR subfamily-3), but not with ARR19 (subfamily-2) and ARR21 (subfamily-3). […] All four KMD proteins interacted with both ARR1 and ARR12 in a BiFC assay. Strong fluorescence was detected in the nuclei of cells, consistent with the subcellular localization of the type-B ARRs (Hwang & Sheen J (2001) Nature 413(6854):383-389; Mason, et al. (2004) Plant Physiol. 135(2):927-937).

The next test deals with T2, ARR12 (Arabidopsis, UniProt P62598 1-596).
T2 construct: YFP^N or YFP^C fusion of the full-length cDNA in BiFC; also called AtARR12; type-B response regulator AtARR12
T2 sequence (looked up): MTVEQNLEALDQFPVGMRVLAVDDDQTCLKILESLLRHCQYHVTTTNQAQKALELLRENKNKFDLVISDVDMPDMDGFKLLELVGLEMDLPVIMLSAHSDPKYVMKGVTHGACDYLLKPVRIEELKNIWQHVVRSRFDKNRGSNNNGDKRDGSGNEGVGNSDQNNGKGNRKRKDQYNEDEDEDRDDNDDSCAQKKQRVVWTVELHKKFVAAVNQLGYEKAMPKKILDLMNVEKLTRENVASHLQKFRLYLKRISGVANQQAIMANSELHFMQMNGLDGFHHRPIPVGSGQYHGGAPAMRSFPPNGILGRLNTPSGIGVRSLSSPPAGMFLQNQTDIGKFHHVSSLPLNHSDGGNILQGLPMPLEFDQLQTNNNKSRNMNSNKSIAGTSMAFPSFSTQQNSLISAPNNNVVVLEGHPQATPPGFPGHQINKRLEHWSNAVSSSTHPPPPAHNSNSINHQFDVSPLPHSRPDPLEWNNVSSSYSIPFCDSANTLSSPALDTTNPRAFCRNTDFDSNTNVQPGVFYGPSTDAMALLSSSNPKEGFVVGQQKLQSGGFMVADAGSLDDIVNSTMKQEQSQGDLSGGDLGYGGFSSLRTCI
Excerpt: as §1, §2

The target of another test is T3, ARR2 (Arabidopsis, UniProt Q9ZWJ9 1-664, limits assumed).
T3 construct: also called type-B response regulator ARR2
T3 sequence (looked up): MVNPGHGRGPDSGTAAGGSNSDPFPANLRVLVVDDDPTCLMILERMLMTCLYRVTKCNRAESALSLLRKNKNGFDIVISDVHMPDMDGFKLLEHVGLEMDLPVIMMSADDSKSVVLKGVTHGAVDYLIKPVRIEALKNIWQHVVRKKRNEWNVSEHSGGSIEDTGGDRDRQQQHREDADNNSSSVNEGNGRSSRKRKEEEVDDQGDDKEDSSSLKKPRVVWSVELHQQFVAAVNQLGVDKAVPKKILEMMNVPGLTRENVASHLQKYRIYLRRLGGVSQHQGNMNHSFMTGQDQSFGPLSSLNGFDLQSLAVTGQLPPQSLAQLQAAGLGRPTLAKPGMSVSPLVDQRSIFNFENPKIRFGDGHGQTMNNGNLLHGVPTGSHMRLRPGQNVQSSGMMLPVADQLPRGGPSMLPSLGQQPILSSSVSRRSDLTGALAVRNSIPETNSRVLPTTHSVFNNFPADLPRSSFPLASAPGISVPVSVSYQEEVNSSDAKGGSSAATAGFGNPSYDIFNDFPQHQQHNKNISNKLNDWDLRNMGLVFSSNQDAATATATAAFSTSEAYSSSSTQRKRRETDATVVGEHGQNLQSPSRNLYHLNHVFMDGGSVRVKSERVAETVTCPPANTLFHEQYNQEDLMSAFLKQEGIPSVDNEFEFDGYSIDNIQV
Excerpt: as §1, §2

Another test addresses T4, ARR10 (Arabidopsis, UniProt O49397 1-552, limits assumed).
T4 construct: also called type-B response regulator ARR10
T4 sequence (looked up): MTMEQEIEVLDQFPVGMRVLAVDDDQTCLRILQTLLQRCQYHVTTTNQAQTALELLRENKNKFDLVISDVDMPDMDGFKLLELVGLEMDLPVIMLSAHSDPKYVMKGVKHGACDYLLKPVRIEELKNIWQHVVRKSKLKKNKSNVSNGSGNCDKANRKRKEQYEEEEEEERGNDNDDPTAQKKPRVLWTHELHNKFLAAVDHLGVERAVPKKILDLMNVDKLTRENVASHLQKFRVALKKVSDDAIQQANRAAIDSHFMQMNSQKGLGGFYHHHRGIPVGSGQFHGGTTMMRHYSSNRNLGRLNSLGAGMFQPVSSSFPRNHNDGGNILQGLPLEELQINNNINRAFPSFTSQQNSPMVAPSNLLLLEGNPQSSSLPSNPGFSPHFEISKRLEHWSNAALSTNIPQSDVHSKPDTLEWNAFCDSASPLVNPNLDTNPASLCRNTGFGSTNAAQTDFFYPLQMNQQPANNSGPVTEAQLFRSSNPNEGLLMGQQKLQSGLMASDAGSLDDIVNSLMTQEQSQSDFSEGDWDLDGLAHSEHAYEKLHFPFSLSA
Excerpt: as §1, §2

B1: KISS ME DEADLY 2 (KMD2) (other, Arabidopsis, UniProt Q9LMR5 1-359, looked up)
chain: MELIPDLPETVAYECLLRSSYKQFPLMASVCKLWQREISLSDFFRHRKASGHSQELVVLSQARVDPVKELVSGNKTIPTPVYRISVLELGTGLRSELPPVPGHSNGLPLFCRLVSVGSDLVVLCGLDPVTWRTSDSVFVFSFLTSTWRVGKSMPGGPRSFFACASDSQRNVFVAGGHDEDKNAMMSALVYDVAEDRWAFLPDMGRERDECTAIFHAGKFHVIGGYSTEEQGQFSKTAESFDVTTWRWSPQGEEFLSSEMTMWPPICAAGENGDLYACCRRDLMMMKDDTWYKVGNLPADVCNVSYVAIRRSGNLVVIGSARYGEPSVGYNWDMSNSRWLKLETHDKYEGHVQAGCFLEI
notes: Full-length protein; LexA fusion in yeast two-hybrid, YFP^N or YFP^C fusion in BiFC; also called At1g15670
For B1, the binding result with ARR19 (subfamily-2) is “no binding”; with ARR12, “binds”; with ARR2, “binds”; in the test with ARR10, “binds”.

B2: KISS ME DEADLY 1 (KMD1) (other, Arabidopsis, UniProt Q9M8L2 1-354, looked up)
chain: MELIPNLPDDVARECLLRSSYQQFPVIASVCRAWNREVSLSQFLHQRKASRHSQELLILSQARVDPAGSGKIIATPEYRISVLESGSGLWTELPPIPGQTKGLPLFCRLVSVGSDLIVLGGLDPITWQAHDSVFVFSFLTSKWRVGATMPGVRRSFFGCASDSDRTVLVAGGHNEEKCALTSAMVYDVSEDKWTFLPDMARERDECKAVFHAGRFHVIGGYATEEQGQFSKTAESFDVSTWEWGPLTEDFLDDTGDTVSPPTCVAGGDLYACWGGDVMMFLNDKWQKVGQIPADVYNVTYVAVRPGMLIVIGNGKALAGYGEATVGYICDLSSSRWVKLETHGGHVQAGCFLEV
notes: Full-length protein; also called At1g80440
With B2, the binding result with ARR19 (subfamily-2) was “no binding”; with ARR12, “binds”; with ARR2, “binds”; with ARR10 it was “binds”.
